Source: patent US20260008856A1 (BLUEFIN BIOMEDICINE, published 2026)

B1: 36A10_21B6 (antibody, V domains shown)
VH: QGQVVESGGGVVQPGRSLRLSCAASGFTFSSYTLHWVRQAPGKGLEWVAVIWYDGSNKYYVDSVKGRFTISRDNSKNTLYLQMNSLRAEDTAVYYCAREYGSGSYYNVYYGMDVWGQGTTVTLSS
VL: DIVMTQSPLSLPVTPGEPASISCRSSQSLLHSNGYNYLDWYLQKPGQSPHLLIYLASNRASGVPDRFSGSGSGTDFTLKISRVEAEDVGFYYCMQTLQIPLTFGGGTKVEIK
B2: 10C8_15A1 (antibody, V domains shown)
VH: QVQLVESGGGVVQPGRSLRISCAASGFTFRSYGMHWVRQAPGKGLEWVAIIWHDESYKYYVDSVKGRFTISRDNSKNTLYLQMNSLRAEDTAVYYCARGDYYGSGSYYDAFDIWGQGTMVTVSS
VL: DIQMTQSPSSLSASVGDRVIITCRASQGISNYLAWFQQKPGKCPNLLIYAASTLRSGVPSRFSGSGSGTDFTLTISSLQPEDVATYYCQKYNSAPYTFGQGTKVEIK
B3: 24G3_17C5 (antibody, V domains shown)
VH: EVQLLESGGGLVQRGGSLRLSCAASGFTFSSYAMSWVRQAPGKGLEWVSSISGSGDSTNYADSVKGRFTISRDNSKNTLHLQMNSLRAEDTAVYYCVRDYYYGMDVWGHGTTVTVSS
VL: EIVLTQSPATLSLSPGERATLSCRASQSVNSYLAWYQQKPGQAPRLLIYDASNRATGIPARFSGSGSGTDFTLTISSLEPEDFAVYYCQQRSYWPITFGQGTRLEIK
notes: Recombinant human antibody
B4: 38E10_21C3 (antibody, V domains shown)
VH: EVQLLESGGGLVQPGGSLRLSCAASGFTFSNYAMTWVRQAPGKGLEWVSSISISRAGTYYADSVKGRFTISRDNSKNTLNLQMNSLRAEDTAEYYCAREYYYGMDVWGQGTTVTVSS
VL: EIVLTQSPATLSLSPGERATLSCRASQSVSSYLAWYQQKPGQTPRLLIYDASNRATGIPARFSGSGSGTDFTLTISSLETEDFAVYYCQQLINWPLTFGGGTKLEIK
notes: Recombinant human antibody
B5: 5G8_18A1 (antibody, V domains shown)
VH: QVELQESGPGLVKPSDTLSLTCTVTGGSISTYYWSWIRQPPGKGLEWIGYIFYTGTTNYNPSLKSRVTISVDASKNQFSLKLNSVTAADTAVYYCARDGSLDYWGQGALVTVSS
VL: DIQMTQSPSSLSASVGDRVTITCRASQSISNYLNWYQQKPGKAPKLLIFVASLLQSGVPSRFSGSGSGTDFTLTISSLQPEDFATYYCQQSYSTPFTFGPGTKLEIK
B6: 16H2_17D2 (antibody, V domains shown)
VH: QVQLVESGGGVVQPGGSLRLSCAASGFTFSSHGMHWVRQAPGKGLEWVAVIWYDGSNKFYTDSVQGRFTISRDNSKNTLNLQMNSLRAEDTAVYYCAREGLRAGYYFDFWGQGTLVTVSS
VL: DIQMTQSPSSLSASVGDRVTITCRASQRISFYSNWYQQKPGKAPKLLIYAASSLQSGVPSRFSGSGSGTDFTLTISSLQPEDFATYFCQQSHSTPLTFGGGTKLEIK
B7: 37E10_15B5 (antibody, V domains shown)
VH: QVQLVESGGGVVQPGRSLRLSCAASGFTFRSHGMHWVRQAPGKGLEWVAVIWYDGSSEYYADSVKGRFTISRDNSKNTLYLQMNSLRAEDTAVYYCARENVYGSGWFFDYWGQGTLVTVSS
VL: EIVMTQSPATLSVSPGERASLSCRASQSVGSNLAWYQQRPGQAPRLLIFGASTRATGIPARFSGSRSGTEFTLTISSLQSEDFALYYCQQYNNWPPWTFGQGTKLEIK
notes: also called BFB759
B8: 44E5_15C5 (antibody, V domains shown)
VH: QVQLVESGGGVVQPGRSLRLSCAASGFTFRSHGMHWVRQAPGKGLEWVAVIWYDGSSDYYADSVKGRFTISRDNSKNTLFLQMNSLSAEDTAVYYCARENVYGSGWFFDYWGQGTLVTVSS
VL: EIVMTQSPATLSVSPGERASLSCRASQSVGSNLAWYQQKPGQAPRLLIFGASTRATGIPARFSGSRSGTEFTLTISSLQSEDFALYYCQQYNNWPPWTFGQGTKLEIK
B9: 37D11_21C2 (antibody, V domains shown)
VH: QVQIKESGPGLVKPSETLSLTCAVSGFSFSSGYYWGWIRQPPGKGLEWLGSFFHNGNTYYNPSLRSRVTISVDTSKNHFSLKLTSVTAADTAVYYCAGFGDLPHYHYYVMDVWGQGTTVTVSS
VL: EIVLTQSPATLSLSPGERATLSCRASQSVSSYLAWYQQKPGQAPRLLIYDASNRAIGIPARFSGSGSGTDFTLTISSLEPEDFAVYYCQQRSNWPPYTFGQGTKLEIK
B10: 32C12_21A4 (antibody, V domains shown)
VH: QVQLVESGGGVVQPGRSLRLSCAASGFTFRNYGIHWVRQAPGKGLEWVAVIWYDGSNKFYADSVKGRFTISRDNSKNTLYLQMNSLRVEDTAVYYCAREEGIAVAPFDYWGQGTLVTVSS
VL: DIQMTQSPSSLSASVGDRVAITCRANQSIASYLNWYQQKPGKAPKLLIYGASSLQNGVPSRFSGSGSRTDFTLTISSLQPEDFATYYCQQSYSTEITFGQGTRLEIK

Key:
[1] = biological target: T1, human IL1RAP on IL1RAP positive human cell lines (EOL-1, Karpas 299; HEK-Blue reporter cells) (human, UniProt Q9NPH3 21-570); experiment: cell-based or functional assay
[2] = biological target: T1, human IL1RAP on IL1RAP positive human …; experiment: cell-based or functional assay; remark: listed apart in the source
[3] = biological target: T1, human IL1RAP on IL1RAP positive human …; experiment: cell-based or functional assay; remark: listed apart in the source
[4] = biological target: T2, huIL1RAP ECD recombinant protein (human, UniProt Q9NPH3 21-367); experiment: Octet BLI, antibody on Protein A biosensor, recombinant huIL1RAP ECD
T2 construct: also called recombinant human IL1RAP-ECD; recombinant human IL1RAP; not shown: C-terminal histidine tag for purification
Procedure: Affinity: The affinity of antibodies to various recombinant IL1RAP protein was determined on an Octet Red™ instrument. After loading reagents into a 96-well plate, the Octet Red™ with Protein A-conjugated biosensors was programmed as follows: 30 seconds for baseline #1; 120 seconds to immobilize the antibody; 30 seconds for baseline #2; 300 seconds for association of antibody to recombinant IL1RAP; and 300-600 seconds for dissociation of recombinant IL1RAP from the antibody.

[5] = biological target: T3, rat IL1RAP (Met1-Val570 plus Myc-DDK) on transfected 293 cells (Rattus norvegicus, UniProt Q63621 21-570); experiment: flow cytometry on 293 cells expressing rat IL1RAP (293-puro-ratIL1RAP) vs 293T-puro [cont.]
T3 construct: whole, on cells; also called RR213032
T3 sequence (Q63621 21-570): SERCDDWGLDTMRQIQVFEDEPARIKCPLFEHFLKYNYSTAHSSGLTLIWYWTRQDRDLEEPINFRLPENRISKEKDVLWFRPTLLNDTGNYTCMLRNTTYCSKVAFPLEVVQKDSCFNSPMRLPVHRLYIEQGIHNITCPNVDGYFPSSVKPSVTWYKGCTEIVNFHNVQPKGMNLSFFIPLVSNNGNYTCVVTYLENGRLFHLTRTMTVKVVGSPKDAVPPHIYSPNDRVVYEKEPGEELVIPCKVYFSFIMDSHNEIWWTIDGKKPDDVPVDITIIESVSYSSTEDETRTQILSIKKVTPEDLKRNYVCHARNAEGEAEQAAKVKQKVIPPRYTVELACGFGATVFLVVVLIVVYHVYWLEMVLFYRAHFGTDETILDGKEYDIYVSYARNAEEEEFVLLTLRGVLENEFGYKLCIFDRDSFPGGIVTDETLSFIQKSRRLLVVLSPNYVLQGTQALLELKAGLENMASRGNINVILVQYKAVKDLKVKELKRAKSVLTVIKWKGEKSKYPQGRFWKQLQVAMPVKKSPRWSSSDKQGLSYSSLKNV
Procedure: (§1) Staining for flow cytometry was performed in 1× cold PBS with 0.5% BSA. Primary antibodies (1 ug/ml) were incubated with live cells on ice for 30 minutes, after a brief wash, cells were incubated with Alexa Fluro® 488-conjugated anti-human IgG secondary antibody @1:1000 (709-546-149, Jackson ImmunoResearch). Acquisition of the data was performed on a MACSQuant® Flow Cytometers (Miltenyi Biotec) and analyzed with FlowJo software.

[6] = biological target: T4, mouse IL1RAP (Met1-Val570 plus Myc-DDK) on transfected 293 cells (Mus musculus, UniProt Q61730 21-570); experiment: flow cytometry on 293 cells expressing mouse IL1RAP (293-puro-mouseIL1RAP) vs 293T-puro [cont.]
T4 construct: whole, on cells; also called MR223729
T4 sequence (Q61730 21-570): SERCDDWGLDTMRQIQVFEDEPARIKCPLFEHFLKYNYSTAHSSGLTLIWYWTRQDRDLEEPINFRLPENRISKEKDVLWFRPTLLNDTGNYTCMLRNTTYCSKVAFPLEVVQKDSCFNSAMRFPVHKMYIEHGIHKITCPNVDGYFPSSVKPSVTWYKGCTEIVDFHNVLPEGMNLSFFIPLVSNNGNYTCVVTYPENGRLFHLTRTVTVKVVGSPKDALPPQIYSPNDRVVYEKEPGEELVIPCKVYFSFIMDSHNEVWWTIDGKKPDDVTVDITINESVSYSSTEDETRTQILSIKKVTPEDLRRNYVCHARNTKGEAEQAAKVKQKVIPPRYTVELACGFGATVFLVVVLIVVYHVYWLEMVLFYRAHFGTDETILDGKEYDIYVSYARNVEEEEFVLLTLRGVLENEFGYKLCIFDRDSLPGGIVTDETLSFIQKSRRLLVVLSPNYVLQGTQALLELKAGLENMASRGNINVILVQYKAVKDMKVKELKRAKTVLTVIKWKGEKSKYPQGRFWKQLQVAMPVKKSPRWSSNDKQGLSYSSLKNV
Procedure: as §1

[7] = biological target: T3, rat IL1RAP (Met1-Val570 plus Myc-DDK) …; experiment: flow cytometry on 293 cells expressing rat IL1RAP (293-puro-ratIL1RAP) vs 293T-puro; 1 ug/ml antibody, Alexa 488 anti-human IgG secondary
Procedure: as §1

[8] = biological target: T3, rat IL1RAP (Met1-Val570 plus Myc-DDK) …; experiment: flow cytometry on 293 cells expressing rat IL1RAP (293-puro-ratIL1RAP) vs 293T-puro
Procedure: as §1

[9] = biological target: T4, mouse IL1RAP (Met1-Val570 plus Myc-DDK) …; experiment: flow cytometry on 293 cells expressing mouse IL1RAP (293-puro-mouseIL1RAP) vs 293T-puro
Procedure: as §1

[10] = biological target: T1, human IL1RAP on IL1RAP positive human …; experiment: cell-based or functional assay; remark: listed apart in the source
[11] = biological target: T2, huIL1RAP ECD recombinant protein; experiment: affinity for human IL1RAP (Octet); Table 7 prints 1.4 nM for the same antibody

| Binder | Kd [4] [nM] | binding result [5] | binding result [6] | EC50, inhibition of signalling by 0.5 ng/ml IL-1beta in HEK-Blue IL-1beta reporter cells (Abs. 620 nM) [1] [nM] | EC50, inhibition of signalling by 0.5 ng/ml IL-1a (IL-1alpha) in the HEK-Blue IL-1 reporter assay (Abs. 620 nM) [2] [nM] | further results |
| --- | --- | --- | --- | --- | --- | --- |
| B1 | 0.4 | no binding (tested: 1 ug/ml) | no binding (tested: 1 ug/ml) |  |  | EC50, inhibition of signalling by 0.5 ng/ml IL-1beta in HEK-Blue IL-1beta reporter cells (Abs. 620 nm); row printed as 36A10_21C2 [1]: 0.29 nM; EC50, inhibition of signalling by 0.5 ng/ml IL-1a (IL-1alpha) in the HEK-Blue IL-1 reporter assay (Abs. 620 nm); row printed as 36A10_21C2 [2]: 0.66 nM; EC50, inhibition of signalling by 0.5 ng/ml IL-33 in HEK-Blue IL-33 reporter cells (Abs. 620 nM) [3]: 1.76 nM |
| B2 | 30 | no binding (tested: 1 ug/ml) | no binding (tested: 1 ug/ml) |  |  |  |
| B3 | 37 |  |  |  |  | binding result [7]: binds |
| B4 | 2 |  |  |  |  | binding result [8]: no binding (tested: 1 ug/ml); binding result [9]: no binding (tested: 1 ug/ml) |
| B5 | 0.4 | no binding (tested: 1 ug/ml) | no binding (tested: 1 ug/ml) | 0.58 | 0.83 |  |
| B6 | 0.2 |  |  | 0.1 | 0.09 | binding result [8]: no binding (tested: 1 ug/ml); binding result [9]: no binding (tested: 1 ug/ml) |
| B7 | 0.3 | no binding (tested: 1 ug/ml) | no binding (tested: 1 ug/ml) | 0.15 | 0.19 | EC50 against IL-1alpha signaling, IL-1 reporter assay [10]: < 1 nM; EC50 against IL-1beta signaling, IL-1 reporter assay [10]: < 1 nM; EC50, inhibition of signalling by 0.5 ng/ml IL-33 in HEK-Blue IL-33 reporter cells (Abs. 620 nm); the curve levels off at about 0.4, not at 0 [3]: 0.32 nM |
| B8 | 0.4 | no binding (tested: 1 ug/ml) | no binding (tested: 1 ug/ml) | 0.17 | 0.18 | EC50 against IL-1alpha signaling, IL-1 reporter assay [10]: < 1 nM; EC50 against IL-1beta signaling, IL-1 reporter assay [10]: < 1 nM; EC50, inhibition of signalling by 0.5 ng/ml IL-33 in HEK-Blue IL-33 reporter cells (Abs. 620 nm); the curve levels off at about 0.4, not at 0 [3]: 0.44 nM |
| B9 | 13 | no binding (tested: 1 ug/ml) | no binding (tested: 1 ug/ml) |  |  |  |
| B10 | 1.4 | no binding (tested: 1 ug/ml) | no binding (tested: 1 ug/ml) |  |  | Kd [11]: 1 nM |
